{"source": "patent US20260166140A1", "about": "“Combinations Involving Epidermal Growth Factor Receptor Tyrosine Kinase Inhibitors For the Treatment of Cancer” (AstraZeneca AB, priority 2022, published 2026)", "key": {"[1]": {"test_system": "MEDI-PANC-08^LUC PDX model", "test": "Orthotopic luciferase expressing pancreatic PDX model efficacy", "type": "in vivo, mice", "conditions": "orthotopic MEDI-PANC-08^LUC; RAA2/B09 ADC 2 and 3 mg/kg Q1W×4; Gemcitabine 75 mg/kg; isotype control 3 mg/kg Q1W×4", "quoted_text": "The luciferase expressing PDX model (MEDI-PANC-08^LUC) was grown subcutaneously in NSG seed mice and at a volume of 800-1200 mm^3 the tumors were harvested and cut into fragments of approximately 2 mm^3. The tumor fragments were subsequently sutured to the pancreas of NSG mice (Day Zero). Luciferase signal was determined weekly using the IVIS Spectrum In vivo Imaging system. Briefly, 10 minutes prior to imaging, 200 ul of luciferin dissolved in DPBS (15 mg/ml) was injected intra-peritoneally (i.p.). The mice were anesthetized under 3% isoflurane, laid on their right side and luminescence measured. Fourteen days after tumor implant, when luminescent signal was clearly detectable, the mice were randomized into their respective groups based on the luminescence. […] Luminescence was measured weekly. Study endpoints included body weight loss, deterioration of body condition and lethargy. Data were analyzed using the Living Image software (Perkin Elmer) and plotted as Average Radiance [p/s/cm2/sr] against time."}, "[2]": {"target": "T1, Mouse EGFR (Mus musculus, UniProt Q01279)", "T1 construct": "purchased SinoBiological 51091-M08H", "test": "SPR (BIAcore T200) antibody capture kinetics", "type": "binding", "description": "(§1) Mouse anti-human IgG was immobilized on a CM4 sensor chip with a final surface density of ˜2000 resonance units (RUs). A reference flow cell surface was also prepared on this sensor chip using identical immobilization protocol. Test and control article antibodies were prepared at 5-20 nM in instrument buffer (HBS-EP buffer; 0.01M HEPES, pH 7.4, 0.15M NaCl, 3 mM EDTA, and 0.005% P-20), along with 3-fold serial dilutions of purified EGFR (0.27-200 nM human, 0.4-900 nM cyno, and 4-1000 nM murine) or cMET proteins (0.27 to 66 nM human and 0.27-22 nM cyno) in instrument buffer. A sequential approach was utilized for kinetic measurements. Antibodies were first injected over the capture surface, at a flow rate of 10 μL/minute. Once the binding of the captured antibody stabilized, a single concentration of the analyte was injected over both capture and reference surfaces, at a flow rate of 75 μL/minute. The resulting binding response curves yielded the association phase data. Following the injection of analyte, the flow was then switched back to instrument buffer for 15 minutes to permit the collection of dissociation phase data, followed by a 1-minute pulse of 10 mM glycine, pH 1.5, to regenerate the antibody-captured surface on the chip. Binding responses against test and control article antibodies were recorded from duplicate injections of each concentration of analyte. In addition, several buffer injections were interspersed throughout the injection series. Select buffer injections were used along with the reference cell responses to correct the raw data sets for injection artifacts and/or nonspecific binding interactions, commonly referred to as “double referencing”. Corrected binding data were globally fit to a 1:1 binding model (Biacore T200 Evaluation software 2.0, GE Healthcare, Pittsburgh, PA)."}, "[3]": {"target": "T2, Human EGFR (Homo sapiens, UniProt P00533)", "test": "SPR (BIAcore T200) antibody capture kinetics", "type": "binding", "description": "as §1"}, "[4]": {"target": "T3, Human cMET (Homo sapiens, UniProt P08581)", "T3 sequence (P08581 25-932)": "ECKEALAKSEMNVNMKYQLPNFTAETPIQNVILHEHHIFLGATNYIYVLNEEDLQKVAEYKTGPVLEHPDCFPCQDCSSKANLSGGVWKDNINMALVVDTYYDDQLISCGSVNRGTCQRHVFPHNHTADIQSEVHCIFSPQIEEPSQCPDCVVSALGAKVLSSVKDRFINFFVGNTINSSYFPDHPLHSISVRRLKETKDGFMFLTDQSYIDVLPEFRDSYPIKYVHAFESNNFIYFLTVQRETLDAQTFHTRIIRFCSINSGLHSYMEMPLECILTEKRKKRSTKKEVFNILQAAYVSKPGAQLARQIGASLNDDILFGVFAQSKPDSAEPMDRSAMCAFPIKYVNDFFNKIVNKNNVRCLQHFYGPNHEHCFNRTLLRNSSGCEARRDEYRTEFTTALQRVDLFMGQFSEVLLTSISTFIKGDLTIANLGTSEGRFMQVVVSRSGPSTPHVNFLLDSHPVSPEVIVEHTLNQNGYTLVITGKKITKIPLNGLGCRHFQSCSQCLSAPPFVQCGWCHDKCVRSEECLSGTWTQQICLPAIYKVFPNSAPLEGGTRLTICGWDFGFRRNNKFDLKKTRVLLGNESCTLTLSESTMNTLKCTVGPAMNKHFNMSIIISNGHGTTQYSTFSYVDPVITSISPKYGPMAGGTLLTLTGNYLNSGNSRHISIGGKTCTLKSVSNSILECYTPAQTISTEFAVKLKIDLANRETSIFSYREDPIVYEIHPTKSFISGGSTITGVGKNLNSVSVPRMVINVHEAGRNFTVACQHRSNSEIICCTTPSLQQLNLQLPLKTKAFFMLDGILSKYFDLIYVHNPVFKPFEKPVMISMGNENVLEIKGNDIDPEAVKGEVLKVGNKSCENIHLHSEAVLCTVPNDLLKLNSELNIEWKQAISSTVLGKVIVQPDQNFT", "test": "SPR (BIAcore T200) antibody capture kinetics", "type": "binding", "description": "as §1"}, "[5]": {"test_system": "Cynomolgus monkey EGFR", "test": "SPR (BIAcore T200) antibody capture kinetics", "type": "binding", "description": "as §1"}, "[6]": {"target": "Cynomolgus monkey cMET", "sequence (as listed by the source)": "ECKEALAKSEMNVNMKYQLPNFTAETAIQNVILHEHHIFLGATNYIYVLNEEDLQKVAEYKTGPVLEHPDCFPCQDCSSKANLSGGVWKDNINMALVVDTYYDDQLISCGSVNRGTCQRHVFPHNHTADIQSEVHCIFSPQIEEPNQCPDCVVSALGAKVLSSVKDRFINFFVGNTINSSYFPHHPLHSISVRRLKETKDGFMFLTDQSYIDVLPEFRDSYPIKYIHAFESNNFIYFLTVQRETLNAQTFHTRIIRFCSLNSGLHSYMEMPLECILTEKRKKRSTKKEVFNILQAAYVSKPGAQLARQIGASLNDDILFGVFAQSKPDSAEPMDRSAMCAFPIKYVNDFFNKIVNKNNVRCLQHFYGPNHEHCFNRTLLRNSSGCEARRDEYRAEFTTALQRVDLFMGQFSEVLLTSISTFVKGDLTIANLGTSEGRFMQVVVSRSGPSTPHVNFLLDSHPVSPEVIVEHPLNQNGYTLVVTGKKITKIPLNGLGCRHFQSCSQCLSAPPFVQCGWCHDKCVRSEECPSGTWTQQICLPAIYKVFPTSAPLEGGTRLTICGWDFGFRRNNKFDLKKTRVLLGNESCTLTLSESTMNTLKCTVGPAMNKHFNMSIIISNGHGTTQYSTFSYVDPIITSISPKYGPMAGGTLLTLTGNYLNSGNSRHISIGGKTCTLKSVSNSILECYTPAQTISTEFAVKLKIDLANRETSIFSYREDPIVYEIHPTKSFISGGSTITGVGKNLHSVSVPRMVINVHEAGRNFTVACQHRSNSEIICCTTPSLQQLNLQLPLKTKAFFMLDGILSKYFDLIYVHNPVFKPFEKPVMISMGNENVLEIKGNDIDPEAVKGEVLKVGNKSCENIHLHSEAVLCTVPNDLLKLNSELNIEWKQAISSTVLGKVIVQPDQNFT", "test": "SPR (BIAcore T200) antibody capture kinetics", "type": "binding", "description": "as §1"}, "[7]": {"target": "T4, Mouse cMET (Mus musculus, UniProt P16056)", "T4 construct": "purchased SinoBiological 50622-M08H", "T4 sequence (P16056 25-929 limits assumed)": "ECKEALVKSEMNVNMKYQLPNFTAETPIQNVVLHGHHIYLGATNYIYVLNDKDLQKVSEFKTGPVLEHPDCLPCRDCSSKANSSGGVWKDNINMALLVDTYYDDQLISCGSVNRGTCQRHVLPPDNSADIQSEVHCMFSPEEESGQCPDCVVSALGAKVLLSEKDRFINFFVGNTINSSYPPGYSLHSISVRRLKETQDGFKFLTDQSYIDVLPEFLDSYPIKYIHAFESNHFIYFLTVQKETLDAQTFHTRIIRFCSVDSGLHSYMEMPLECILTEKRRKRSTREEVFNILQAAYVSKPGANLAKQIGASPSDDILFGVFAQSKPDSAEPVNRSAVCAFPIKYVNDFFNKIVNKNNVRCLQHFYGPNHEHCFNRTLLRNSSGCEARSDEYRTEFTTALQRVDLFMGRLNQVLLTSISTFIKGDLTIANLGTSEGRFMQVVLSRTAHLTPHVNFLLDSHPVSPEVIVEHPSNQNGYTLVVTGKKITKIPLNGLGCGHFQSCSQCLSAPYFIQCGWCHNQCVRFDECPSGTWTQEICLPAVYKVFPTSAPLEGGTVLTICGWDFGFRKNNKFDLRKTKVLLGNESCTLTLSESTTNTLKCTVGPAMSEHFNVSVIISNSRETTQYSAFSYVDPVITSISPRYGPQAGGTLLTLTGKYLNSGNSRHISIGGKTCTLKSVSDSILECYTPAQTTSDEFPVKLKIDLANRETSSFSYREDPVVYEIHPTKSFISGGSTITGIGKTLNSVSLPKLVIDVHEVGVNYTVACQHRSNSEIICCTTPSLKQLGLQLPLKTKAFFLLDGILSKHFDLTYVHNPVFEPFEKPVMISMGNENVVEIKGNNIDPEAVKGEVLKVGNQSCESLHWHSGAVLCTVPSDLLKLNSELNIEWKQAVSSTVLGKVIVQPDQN", "test": "SPR (BIAcore T200) antibody capture kinetics", "type": "binding", "description": "as §1"}, "[8]": {"target": "HER3 (Homo sapiens, UniProt P21860)", "test": "ELISA family specificity", "type": "binding", "description": "(§2) Specificity for EGFR and cMET species paralogs and closely related family members was determined by ELISA. Briefly, antigen solutions were prepared in PBS at 1 μg/mL and 50 microliters was coated onto half area ELISA assay plates. Plates were washed and blocked with 1% BSA in PBS containing 0.005% Tween-20 (PBS-T) for one hour at room temperature. The wells were washed 4 times in PBS-T. As set out in FIG. 3, the primary antibodies used where: R374 (a non-binding IgG1 isotype control antibody), B09 (anti-cMET antibody), QD6 (anti-EGFR antibody), RAA22 (anti-EGFR antibody), QD6/B09 (bispecific EGFR/c-MET DuetMAb), RAA22/B09 (bispecific EGFR/c-MET DuetMAb), PaniX (anti-EGFR antibody), MetMab (anti-cMET antibody) and Mab11311 (anti-HER4 antibody). Wells were incubated with 50 microliters of the indicated primary antibodies diluted in PBS-T in a 1:3 dilution series, starting at 10 μg/mL and ending at 0.002 μg/mL, except for the HER4 binding mAb control, MAB1131, for which the series started at 1 μg/mL. The wells were washed 4 times in PBS-T, then 50 μl of goat anti-human Fab HRP-labeled secondary antibody, diluted 1:5000 in PBS-T, was added to each well and incubated for one hour at room temperature. […] 50 microliters of TMB stop solution was added to all wells and the absorbance was read at 450 nm on a SpectraMax M5 microplate reader. Data were analyzed in the SoftMax Pro 5 software and plotted using GraphPad Prism 7 graphing software."}, "[9]": {"target": "HER2 (Homo sapiens, UniProt P04626)", "test": "ELISA family specificity", "type": "binding", "description": "as §2"}, "[10]": {"target": "HER4 (Homo sapiens, UniProt Q15303)", "sequence (Q15303 26-1308, species assumed)": "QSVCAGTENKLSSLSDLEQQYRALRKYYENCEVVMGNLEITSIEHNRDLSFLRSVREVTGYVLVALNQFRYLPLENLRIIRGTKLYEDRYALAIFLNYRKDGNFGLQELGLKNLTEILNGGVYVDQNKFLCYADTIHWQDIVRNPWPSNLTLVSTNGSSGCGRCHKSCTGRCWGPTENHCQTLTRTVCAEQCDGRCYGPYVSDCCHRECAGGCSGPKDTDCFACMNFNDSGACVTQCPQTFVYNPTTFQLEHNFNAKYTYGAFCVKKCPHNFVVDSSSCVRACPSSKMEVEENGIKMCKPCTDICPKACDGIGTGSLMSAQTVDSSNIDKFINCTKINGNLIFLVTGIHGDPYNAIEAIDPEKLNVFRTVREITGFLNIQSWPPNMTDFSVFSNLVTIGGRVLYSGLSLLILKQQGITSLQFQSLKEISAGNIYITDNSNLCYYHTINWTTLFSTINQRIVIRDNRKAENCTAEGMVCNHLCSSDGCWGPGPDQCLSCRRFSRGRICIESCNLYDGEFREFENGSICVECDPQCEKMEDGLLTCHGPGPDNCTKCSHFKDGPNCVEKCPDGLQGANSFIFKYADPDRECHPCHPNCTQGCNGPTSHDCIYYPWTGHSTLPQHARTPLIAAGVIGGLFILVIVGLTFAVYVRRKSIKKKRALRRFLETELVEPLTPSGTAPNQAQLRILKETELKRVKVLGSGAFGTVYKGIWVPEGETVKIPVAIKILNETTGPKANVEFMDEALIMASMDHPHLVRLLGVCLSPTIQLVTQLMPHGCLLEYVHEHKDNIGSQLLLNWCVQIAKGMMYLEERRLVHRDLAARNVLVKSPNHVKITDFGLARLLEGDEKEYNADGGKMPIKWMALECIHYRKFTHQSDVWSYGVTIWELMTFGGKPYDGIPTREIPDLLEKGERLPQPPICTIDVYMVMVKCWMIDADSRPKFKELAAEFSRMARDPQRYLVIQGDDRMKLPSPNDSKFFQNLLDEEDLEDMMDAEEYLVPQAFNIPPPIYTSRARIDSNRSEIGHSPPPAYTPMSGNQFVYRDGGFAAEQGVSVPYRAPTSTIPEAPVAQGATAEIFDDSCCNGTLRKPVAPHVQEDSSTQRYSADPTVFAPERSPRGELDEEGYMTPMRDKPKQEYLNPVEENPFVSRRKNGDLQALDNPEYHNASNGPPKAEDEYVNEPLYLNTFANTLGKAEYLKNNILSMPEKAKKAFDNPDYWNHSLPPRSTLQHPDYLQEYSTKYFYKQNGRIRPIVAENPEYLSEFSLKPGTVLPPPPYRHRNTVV", "test": "ELISA family specificity", "type": "binding", "description": "as §2"}, "[11]": {"target": "T1, Mouse EGFR", "test": "ELISA species cross reactivity", "type": "binding", "description": "as §2\n(§3) To determine the species cross reactivity, ELISA assays were carried out as described above. […] There was no detectable binding of any of the antibodies to mouse cMET."}, "[12]": {"target": "T2, Human EGFR", "test": "ELISA species cross reactivity", "type": "binding", "conditions": "antibody 10 to 0.002 μg/mL", "description": "as §2, §3"}, "[13]": {"test_system": "Cynomolgus monkey EGFR", "test": "ELISA species cross reactivity", "type": "binding", "description": "as §2, §3"}, "[14]": {"target": "human cMET receptor with the HGF ligand (Homo sapiens, UniProt P08581)", "sequence (P08581 25-932 limits assumed)": "as the sequence (P08581 25-932) above", "test": "HGF:cMET HTRF ligand receptor inhibitory binding assay", "conditions": "purified IgG2 antibodies", "source_text": "cMET-specific scFv antibodies were isolated from a large naïve human scFv phage display library in a series of repeated panning selection cycles on recombinant mammalian expressed biotinylated monomeric human cMET (MedImmune) essentially as described (Vaughan, 1996). ScFvs from the round 2 of the selection output were expressed in the bacterial periplasm and screened for their ability to inhibit the binding of the human cMET receptor with the HGF ligand in a HGF:cMET HTRF® (Homogeneous Time-Resolved Fluorescence) ligand receptor inhibitory binding assay. […] Unique genes were then converted to human immunoglobulin G2 (IgG2) antibodies and produced in mammalian cells essentially as described (Persic; 1997). The purified antibodies were then ranked based on their inhibitory effect in the HGF:cMET HTRF® binding assay.\nTo minimize potential immunogenicity, non-Vernier framework residues (Foote and Winter 1992) in the variable framework regions of 0021U3-B09 were targeted specifically and altered to match the closest human germline sequence. In the VH region, seven amino acid residues were mutated to match the reference human germline sequence IGHV1-8*01. In the VL region, three residues were mutated to match the reference human germline sequence IGKV1-5*03. All residues in VH and VL regions were successfully changed to the germline residues without loss of activity. […]"}, "[15]": {"target": "Ron (CD136) (Homo sapiens, UniProt Q04912)", "test": "ELISA family specificity", "type": "binding", "description": "as §2"}, "[16]": {"test_system": "Semaphorin 3a", "test": "ELISA family specificity", "type": "binding", "description": "as §2"}, "[17]": {"target": "T3, Human cMET", "test": "ELISA species cross reactivity", "type": "binding", "description": "as §2, §3"}, "[18]": {"test_system": "Cynomolgus monkey cMET", "test": "ELISA species cross reactivity", "type": "binding", "description": "as §2, §3"}}, "data": [{"molecule": "Nc1ccn([C@@H]2O[C@H](CO)[C@@H](O)C2(F)F)c(=O)n1", "note": "[Gemcitabine]", "values": [{"measurement": "luminescent signal", "setting": "[1]", "value": "initial reduction in the luminescent signal reaching a nadir around day 21, after which the signal increased over time"}]}, {"molecule": "RAA22 IgG: low affinity anti-EGFR IgG1 antibody clone, VH SEQ ID NO: 16, VL SEQ ID NO: 20 (antibody, V domains shown) VH: QVQLVQSGAEVKKPGSSVKVSCKASGGTFSDNDFSWVRQAPGQGLEWMGAIVAVFRTETYAQKFQDRVKITADISTRTTYMELSSLRSEDTAVYYCARRLMSAISGPGAPLLMWGQGTLVTVSS VL: QSALTQPRSVSGSPGQSVTISCTGTSSDVGGYNYVSWYQQHPGKAPKLMIYDVSKRPSGVPDRFSGSKSGNTASLTISGLQAEDEADYYCSSYTSSDTLEIFGGGTKLTVL", "values": [{"measurement": "Koff", "setting": "[2]; 25° C.", "value": 0.019, "unit": "s⁻¹"}, {"measurement": "Kon", "setting": "[2]; 25° C.", "value": 40300, "unit": "M⁻¹ s⁻¹"}, {"measurement": "Koff", "setting": "[3]; 25° C.", "value": 0.00206, "unit": "s⁻¹"}, {"measurement": "Kon", "setting": "[3]; 25° C., 1:1 binding model", "value": 44100, "unit": "M⁻¹ s⁻¹"}, {"measurement": "KD", "setting": "[4]; koff/kon", "value": "No binding detected at 200 nM"}, {"measurement": "Koff", "setting": "[5]; 25° C.", "value": 0.00601, "unit": "s⁻¹"}, {"measurement": "Kon", "setting": "[5]; 25° C.", "value": 35400, "unit": "M⁻¹ s⁻¹"}, {"measurement": "KD", "setting": "[6]; koff/kon", "value": "No binding detected at 200 nM"}, {"measurement": "KD", "setting": "[7]", "value": "No binding detected at 200 nM"}, {"measurement": "ELISA binding", "setting": "[8]", "value": "no binding"}, {"measurement": "ELISA binding", "setting": "[9]", "value": "no binding"}, {"measurement": "ELISA binding", "setting": "[10]", "value": "no binding"}, {"measurement": "ELISA binding", "setting": "[11]", "value": "weak, but detectable"}, {"measurement": "ELISA binding", "setting": "[12]", "value": "bound more weakly"}, {"measurement": "ELISA binding", "setting": "[13]", "value": "bound more weakly"}]}, {"molecule": "B09-57 IgG: affinity optimized, germlined anti-cMET antibody derived from 0021U3-B09, VH SEQ ID NO: 38, VL SEQ ID NO: 40 (antibody, V domains shown) VH: QVQLVQSGAEVKKPGASVKVSCKASGYTFTDYYIHWVRQATGQGLEWMGWMNPNSGNTGYAQKFQGRVTMTRDTSISTAYMELSSLRSEDTAVYYCARGQGYTHSWGQGTMVTVSS VL: DIQMTQSPSTLSASVGDRVTITCRASEGIYHWLAWYQQKPGKAPKLLIYKASSLASGVPSRFSGSGSGTEFTLTISSLQPDDFATYYCQQYSNYPPTFGGGTKLEIK", "values": [{"measurement": "rank by inhibitory effect in the HGF:cMET HTRF binding assay", "setting": "[14]", "value": "most potent antibody"}, {"measurement": "KD", "setting": "[2]; koff/kon", "value": "No binding detected at 200 nM"}, {"measurement": "KD", "setting": "[3]; KD calculated as koff/kon", "value": "No binding detected at 200 nM"}, {"measurement": "Koff", "setting": "[4]; 25° C.", "value": 0.000882, "unit": "s⁻¹"}, {"measurement": "Kon", "setting": "[4]; 25° C.", "value": 563000, "unit": "M⁻¹ s⁻¹"}, {"measurement": "KD", "setting": "[5]; koff/kon", "value": "No binding detected at 200 nM"}, {"measurement": "Koff", "setting": "[6]; 25° C.", "value": 0.00194, "unit": "s⁻¹"}, {"measurement": "Kon", "setting": "[6]; 25° C.", "value": "1.04e+06", "unit": "M⁻¹ s⁻¹"}, {"measurement": "KD", "setting": "[7]", "value": "No binding detected at 200 nM"}, {"measurement": "ELISA binding", "setting": "[15]", "value": "no binding"}, {"measurement": "ELISA binding", "setting": "[16]", "value": "no binding"}, {"measurement": "ELISA binding", "setting": "[17]", "value": "comparable binding"}, {"measurement": "ELISA binding", "setting": "[18]", "value": "comparable binding"}]}]}
